Literature values in paper PMC6003685.

Molecular target: PspF 1-265 (Escherichia coli) (UniProt P37344)

In the case of PspA 1-144 (from UniProt P0AFM6), the Kd is listed as 1000 nM.
